Assays:
[1] = target: T1, MG4 domain mutant d332-348 Fc fusion protein (human, UniProt P01031 367-469); assay: immunoblot after SDS-PAGE
T1 construct: not shown: hinge region and CH2-CH3 domain of human IgG1
Excerpt: (§1) MG4 domain of the beta chain and five mutants from which the MG4 domain is sequentially removed from N-terminus of the MG4 domain were cloned. The primers were designed to add SfiI restriction sites at both the 5′ and 3′ ends (Table 13). The amplified PCR fragments were digested with SfiI and cloned into modified pCEP4 vector containing the hinge region and CH2-CH3 domain of human IgG1 at the 3′ region of the cloning site. These clones were transfected and Fc fusion proteins were purified as described in Example 5. The purified Fc fusion proteins were subjected to SDS-PAGE, and immunoblotting was performed as described above.

[2] = target: T2, MG4 domain mutant d332-378 Fc fusion protein (human, UniProt P01031 397-469); assay: immunoblot after SDS-PAGE
T2 construct: not shown: hinge region and CH2-CH3 domain of human IgG1
Excerpt: as §1

[3] = target: T3, MG4 domain mutant d332-396 Fc fusion protein (human, UniProt P01031 415-469); assay: immunoblot after SDS-PAGE
T3 construct: not shown: hinge region and CH2-CH3 domain of human IgG1
Excerpt: as §1

[4] = target: T4, beta chain of human C5 protein (human, UniProt P01031 19-673); assay: immunoblot, SDS-PAGE under reducing condition
T4 construct: Seen as the beta-chain band of C5 on SDS-PAGE under reducing condition; also called C5 beta-chain

[5] = target: T5, Fc fusion protein having an MG4 domain (human, UniProt P01031 350-469); assay: immunoblot of beta-chain domain Fc fusion proteins
T5 construct: Amplified with MG4_F/MG4_R and cloned by SfiI into modified pCEP4; also called hMG4; MG4 domain of the C5 beta chain as Fc fusion protein; not shown: hinge region and CH2-CH3 domain of human IgG1, 3' of the cloning site

B1: HRA-06-H2-1 (antibody, human IgG2, kappa, V domains shown)
VH: EVQLVESGGGLVQPGGSLRLSCAASGFSFSGRYWIQWVRQAPGKGLEWVASVWPGITGDTNYANWAKGRFTISRDDSKNTLYLQMNSLRAEDTAVYYCAREPVAWGGGLDLWGQGTLVTVSS
VL: DIQMTQSPSSLSASVGDRVTITCQASQSINNQLSWYQQKPGKAPKLLIYYASTLASGVPSRFSGSGSGTDFTLTISSLQPEDFATYYCQGSYYSGGWDYGFGQGTKVEIKR
notes: also called anti-complement C5 antibody HRA-06-H2-1; C5 Antibody (HRA-06-H2-1)
B1: no binding [1]; no binding [2]; no binding [3]. B1: binds [4]; binds [5].
